Data: paper PMC5148173

Assays:
[1] = target: N-terminally hexahistidine tagged wt N_TAIL (C-terminal domain of the MeV nucleoprotein N, aa 401-525) (measles virus (Edmonston B)) (UniProt P04851); experiment: ITC; conditions: domain or fragment
[2] = target: N-terminally hexahistidine tagged N_TAIL R490S (measles virus (Edmonston B)) (UniProt P04851); experiment: ITC; N_TAIL (25-180 uM) in the cell, XD (300-960 uM) in the microsyringe, 19 injections of 2 uL; 20 C; 10 mM Tris/HCl pH 8, 150 mM NaCl; single set of sites model
[3] = target: N-terminally hexahistidine tagged N_TAIL R497G (measles virus (Edmonston B)) (UniProt P04851); experiment: as above
[4] = target: N_TAIL S491L fused to a Gaussia luciferase fragment (glu-PCA) (measles virus) (UniProt P04851); experiment: split reporter (BiFC, NanoBiT); KD estimated from the glu-PCA luminescence with the empirically determined equation relating luminescence and the ITC KD values (Fig 4)

How did the Kd [1] turn out when “C-terminally hexahistidine tagged MeV XD (X domain of the phosphoprotein P, aa 459-507) (from UniProt P03422 459-507)” was run?
The Kd was 3 µM.

Which Kd [2] does the source give for “C-terminally hexahistidine tagged MeV XD (X domain of the phosphoprotein P, aa 459-507) (from UniProt P03422 459-507) (domain or fragment)” here?
The Kd was 20 µM.

What about the fold decrease in the binding affinity against wt N TAIL [2] of the same substance?
The fold decrease in the binding affinity against wt N TAIL was 7 fold.

What about the Kd [3] of the same substance?
Its Kd is 44 µM.

With “XD of the monomeric split-luciferase reassembly assay (glu-PCA) (from UniProt P03422 376-507) (domain or fragment)” as the substance, how does the Kd [4] read?
Its Kd is 85 µM.
